Where two headings read alike, the source gives them in different places. Values belong to the binder of their own block, whether it stands above or below them. Starred links: 1 amine or outer side, 2 acyl side, 3 side chain; linkers in the order of their positions; H or OH if unused. Positions of bridges follow the written chain, without caps; N, C: chain ends. Groups on a side chain read outwards from the residue. *: point of attachment. γGlu = O=C(O)[C@H](CCC(=O)[*:2])N[*:1]; Palmitoyl = CCCCCCCCCCCCCCCC(=O)*; Isovaleryl = CC(C)CC(=O)*
Columns and labels:
Test in all cases: cell-based or functional assay
[1] = target: T1, human ferroportin (SLC40A1) fused in frame with GFP, stably expressed in HEK293 cells (human, UniProt Q9NP59 1-571)
T1 sequence (looked up): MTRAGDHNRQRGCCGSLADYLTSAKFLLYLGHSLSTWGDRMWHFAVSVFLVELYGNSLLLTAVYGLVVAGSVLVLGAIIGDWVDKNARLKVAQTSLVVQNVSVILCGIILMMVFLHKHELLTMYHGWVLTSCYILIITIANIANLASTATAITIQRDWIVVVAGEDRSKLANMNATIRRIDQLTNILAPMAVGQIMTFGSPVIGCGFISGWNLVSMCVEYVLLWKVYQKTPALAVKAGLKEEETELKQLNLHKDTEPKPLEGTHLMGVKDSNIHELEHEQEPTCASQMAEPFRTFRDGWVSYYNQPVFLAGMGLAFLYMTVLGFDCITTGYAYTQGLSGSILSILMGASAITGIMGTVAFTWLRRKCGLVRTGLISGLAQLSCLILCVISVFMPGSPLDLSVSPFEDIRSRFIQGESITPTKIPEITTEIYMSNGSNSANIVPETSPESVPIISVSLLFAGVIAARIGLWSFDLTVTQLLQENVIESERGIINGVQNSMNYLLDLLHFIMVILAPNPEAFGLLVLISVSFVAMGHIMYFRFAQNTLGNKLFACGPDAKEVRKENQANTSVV

[2] = target: T1, human ferroportin (SLC40A1) fused in …; remark: listed apart in the source
[3] = target: T1, human ferroportin (SLC40A1) fused in …; remark: listed apart in the source

B1: Compound 10 (peptide)
peptide: DTHFPCIKFKPRSKXC
modifications: N-terminal isovaleric acid; Lys 10 carries IsoGlu-Palm; Sar (sarcosine) at 15; C-terminal NH2 (amide)
HEK-GFP cell based assay: potency EC50 (loss of ferroportin-GFP fluorescence) [1]: 10 nM

B2: Compound 11 (peptide)
peptide: Isovaleryl-DTHFPCKKFK([γGlu-Palmitoyl])PRSKGCK-NH2
modifications: disulfide 6-16 (inferred)
HEK-GFP cell based assay: potency EC50 (loss of ferroportin-GFP fluorescence) [1]: 22 nM

B3: Compound 12 (peptide)
peptide: DTHFPCIKFKPRSKGCK
modifications: N-terminal isovaleric acid; Lys 10 carries isoGlu-Lauric acid; C-terminal NH2 (amide)
HEK-GFP cell based assay: potency EC50 (loss of ferroportin-GFP fluorescence) [1]: 14 nM

B4: Compound 13 (peptide)
peptide: DTHFPCIKFKPRSKGCK
modifications: N-terminal isovaleric acid; Lys 10 carries isoGlu-Myristic acid; C-terminal NH2 (amide)
HEK-GFP cell based assay: potency EC50 (loss of ferroportin-GFP fluorescence) [1]: 10 nM

B5: Compound 14 (peptide)
peptide: DTHFPCIKFKPRSKGCK
modifications: N-terminal isovaleric acid; Lys 10 carries isoGlu-Bioitin (biotin); C-terminal NH2 (amide)
HEK-GFP cell based assay: potency EC50 (loss of ferroportin-GFP fluorescence) [1]: 29 nM

B6: Compound 15 (peptide)
peptide: DTHFPCIKFKPRSKGCK
modifications: N-terminal isovaleric acid; Lys 10 carries isoGlu-Isovaleric acid; C-terminal NH2 (amide)
HEK-GFP cell based assay: potency EC50 (loss of ferroportin-GFP fluorescence) [1]: 26 nM

B7: Compound 16 (peptide)
peptide: DTHFPCIKFKPRSKGCK
modifications: N-terminal isovaleric acid; Lys 10 carries PEG2-Palm; C-terminal NH2 (amide)
HEK-GFP cell based assay: potency EC50 (loss of ferroportin-GFP fluorescence) [1]: 36 nM

B21: Compound 6 (peptide)
peptide: DTHFPCIKFKPRSKXCK
modifications: N-terminal isovaleric acid; Lys 10 carries IsoGlu-Palm; Sar (sarcosine) at 15; C-terminal NH2 (amide)
HEK-GFP cell based assay: potency EC50 (loss of ferroportin-GFP fluorescence) [1]: 11 nM

B22: Compound 9 (peptide)
peptide: DTHFPCIKFKPRSKGC
modifications: N-terminal isovaleric acid; Lys 10 carries IsoGlu-Palm; C-terminal NH2 (amide)
HEK-GFP cell based assay: potency EC50 (loss of ferroportin-GFP fluorescence) [1]: 11 nM

Other lines, results leading:

HEK-GFP cell based assay: potency EC50 (loss of ferroportin-GFP fluorescence) [1]: 30 nM
B8: Compound 17 (peptide)
peptide: DTHFPCIKFKPRSKGCK
modifications: N-terminal isovaleric acid; Lys 10 carries PEG11-Palm; C-terminal NH2 (amide)

HEK-GFP cell based assay: potency EC50 (loss of ferroportin-GFP fluorescence) [1]: 36 nM
B9: Compound 18 (peptide)
peptide: DTHFPCIKFKPRSKGCK
modifications: N-terminal isovaleric acid; Lys 10 carries PEG11-Lauric acid; C-terminal NH2 (amide)

HEK-GFP cell based assay: potency EC50 (loss of ferroportin-GFP fluorescence) [1]: 30 nM
B10: Compound 19 (peptide)
peptide: DTHFPCIKFKPRSKGCK
modifications: N-terminal isovaleric acid; Lys 10 carries PEG11-Myristic acid; C-terminal NH2 (amide)

HEK-GFP cell based assay: potency EC50 (loss of ferroportin-GFP fluorescence) [1]: 19 nM
B11: Compound 20 (peptide)
peptide: DTHFPCIKFKPRSKGCK
modifications: N-terminal isovaleric acid; Lys 10 carries Palm; C-terminal NH2 (amide)

HEK-GFP cell based assay: potency EC50 (loss of ferroportin-GFP fluorescence) [1]: 32 nM
B12: Compound 21 (peptide)
peptide: DTHFPCIKFKPRSKGCK
modifications: N-terminal isovaleric acid; Lys 10 carries PEG8; C-terminal NH2 (amide)

HEK-GFP cell based assay: potency EC50 (loss of ferroportin-GFP fluorescence) [1]: 18 nM
B13: Compound 22 (peptide)
peptide: DTHFPCIKFKPRSKGCK
modifications: N-terminal isovaleric acid; Lys 10 carries Ahx-Palm; C-terminal NH2 (amide)

HEK-GFP cell based assay: potency EC50 (loss of ferroportin-GFP fluorescence) [1]: 10 nM
B14: Compound 24 (peptide)
peptide: DTHFPCIKFKPRSKXCK
modifications: N-terminal isovaleric acid; Lys 10 carries Ahx-Palm; Sar (sarcosine) at 15; C-terminal NH2 (amide)

HEK-GFP cell based assay: potency EC50 (loss of ferroportin-GFP fluorescence) [1]: 14 nM
B15: Compound 25 (peptide)
peptide: DTHFPCIKFKPRSKGCK
modifications: N-terminal isovaleric acid; Lys 10 carries Ac (acetyl); C-terminal NH2 (amide)

HEK-GFP cell based assay: potency EC50 (loss of ferroportin-GFP fluorescence) [2]: 18 nM
B16: Compound 30 (peptide)
peptide: Isovaleryl-DTHFPCIRFK([γGlu-Octanoic acid])-NH2
modifications: also: dimer: two subunits joined at their C-termini through the Lys linker

HEK-GFP cell based assay: potency EC50 (loss of ferroportin-GFP fluorescence) [2]: 8 nM
B17: Compound 31 (peptide)
peptide: DTHFPCIKFXX
modifications: N-terminal isovaleric acid on each subunit; the two subunits are joined by IDA-[βala] that carries Peg2-Palm

HEK-GFP cell based assay: potency EC50 (loss of ferroportin-GFP fluorescence) [2]: 13 nM
B18: Compound 32 (peptide)
peptide: DTHFPCIKFXX
modifications: N-terminal isovaleric acid on each subunit; the two subunits are joined by IDA-[βala] that carries Peg11-Palm

Potency EC50 (nM), ferroportin degradation in ferroportin-GFP HEK293 cells [3]: 712 nM
B19: Mini-Hepcidin 1-9 (peptide)
peptide: H-DTHFPICIF-NH2

Potency EC50 (nM), ferroportin degradation in ferroportin-GFP HEK293 cells [3]: > 10000 nM
B20: RI-Mini Hepcidin (peptide)
peptide: FICIPFHTD
modifications: all residues are D-amino acids (retro inverse of mini-hepcidin); C-terminal NH2 (amide)

Reference: patent US20190002503A1 (published 2019)
